# Data reported in IntAct's records for PubMed 17405859.
# B1: Neuropilin-1 (Rattus norvegicus (Rat)), Q9QWJ9 (parent)
# chain: MERGLPLLCATLALALALAGAFRSDKCGGTIKIENPGYLTSPGYPHSYHPSEKCEWLIQAPEPYQRIMINFNPHFDLEDRDCKYDYVEVIDGENEGGRLWGKFCGKIAPSPVVSSGPFLFIKFVSDYETHGAGFSIRYEIFKRGPECSQNYTAPTGVIKSPGFPEKYPNSLECTYIIFAPKMSEIILEFESFDLEQDSNPPGGVFCRYDRLEIWDGFPEVGPHIGRYCGQKTPGRIRSSSGILSMVFYTDSAIAKEGFSANYSVLQSSISEDFKCMEALGMESGEIHSDQITASSQYGTNWSVERSRLNYPENGWTPGEDSYREWIQVDLGLLRFVTAVGTQGAISKETKKKYYVKTYRVDISSNGEDWITLKEGNKAIIFQGNTNPTDVVFGVFPKPLITRFVRIKPASWETGISMRFEVYGCKITDYPCSGMLGMVSGLISDSQITASNQGDRNWMPENIRLVTSRTGWALPPSPHPYINEWLQVDLGDEKIVRGVIIQGGKHRENKVFMRKFKIAYSNNGSDWKMIMDDSKRKAKSFEGNNNYDTPELRAFTPLSTRFIRIYPERATHSGLGLRMELLGCEVEVPTAGPTTPNGNPVDECDDDQANCHSGTGDDFQLTGGTTVLATEKPTIIDSTIQSEFPTYGFNCEFGWGSHKTFCHWEHDSHAQLRWRVLTSKTGPIQDHTGDGNFIYSQADENQKGKVARLVSPVVYSQSSAHCMTFWYHMSGSHVGTLRVKLHYQKPEEYDQLVWMVVGHQGDHWKEGRVLLHKSLKLYQVIFEGEIGKGNLGGIAVDDISINNHIPQEDCAKPTDLDKKNTEIKIDETGSTPGYEEGKGDKNISRKPGNVLKTLDPILITIIAMSALGVLLGAVCGVVLYCACWHNGMSERNLSALENYNFELVDGVKLKKDKLNPQSNYSEA
# Variants of: B1
# Settings: with vegfa_human VEGFA
row,effect of a mutation on the interaction,Variant
1,disrupting interaction strength,T349A
2,disrupting interaction strength,S346A
3,disrupting interaction strength,E348A
